Numbering of substitutions follows the chain as printed. Names may count otherwise.
B1: Oregon Green-labelled FICD^NC (wild-type FICD carrying an N-terminal cysteine) (domain or fragment, human)
chain: CLEARAALNQALEMKRQGKREKAQKLFMHALKMDPDFVDALTEFGIFSEEDKDIIQADYLYTRALTISPYHEKALVNRDRTLPLVEEIDQRYFSIIDSKVKKVMSIPKGNSALRRVMEETYYHHIYHTVAIEGNTLTLSEIRHILETRYAVPGKSLEEQNEVIGMHAAMKYINTTLVSRIGSVTISDVLEIHRRVLGYVDPVEAGRFRTTQVLVGHHIPPHPQDVEKQMQEFVQWLNSEEAMNLHPVEFAALAHYKLVYIHPFIDGNGRTSRLLMNLILMQAGYPPITIRKEQRSDYYHVLEAANEGDVRPFIRFIAKCTETTLDTLLFATTEYSVALPEAQP
modifications: Oregon Green 488 on the N-terminal cysteine (labelling efficiency 74%)
notes: N-terminal cysteine added for site-specific labelling; FICD (HYPE), human, residues 104-445; also called UK 2339; source: E. coli, purified, labelled with Oregon Green 488-iodoacetamide, SEC
B2: catalytically inactive, dimeric FICD^H363A (residues 104-445) (domain or fragment, human, UniProt Q9BVA6 104-445, looked up)
chain: LEARAALNQALEMKRQGKREKAQKLFMHALKMDPDFVDALTEFGIFSEEDKDIIQADYLYTRALTISPYHEKALVNRDRTLPLVEEIDQRYFSIIDSKVKKVMSIPKGNSALRRVMEETYYHHIYHTVAIEGNTLTLSEIRHILETRYAVPGKSLEEQNEVIGMHAAMKYINTTLVSRIGSVTISDVLEIHRRVLGYVDPVEAGRFRTTQVLVGHHIPPHPQDVEKQMQEFVQWLNSEEAMNLHPVEFAALAHYKLVYIAPFIDGNGRTSRLLMNLILMQAGYPPITIRKEQRSDYYHVLEAANEGDVRPFIRFIAKCTETTLDTLLFATTEYSVALPEAQP
notes: FICD (HYPE), human, residues 104-445; Dimeric as analyte on BiP; in the rows with m14 and m15 one of its protomers pairs with one labelled protomer; also called dFICD^H363A; UK 1954; source: E. coli T7 Express lysY/Iq, purified (Ni-NTA, on-column Ulp1 cleavage, anion exchange, SEC)
B3: cysteine-free FICD^C421S (residues 104-445) (domain or fragment, human, UniProt Q9BVA6 104-445, looked up)
chain: B2 chain with A260H, C318S
notes: FICD (HYPE), human, residues 104-445; also called UK 2161; source: E. coli T7 Express lysY/Iq, purified by the protocol of the disulphide-linked dimers
B4: FICD^E242A (residues 104-445) (domain or fragment, human, UniProt Q9BVA6 104-445, looked up)
chain: B2 chain with E139A, A260H
notes: FICD (HYPE), human, residues 104-445; also called dimer relay mutant; source: E. coli T7 Express lysY/Iq, purified (Ni-NTA, on-column Ulp1 cleavage, anion exchange, SEC)
B5: FICD^K256S (residues 104-445) (domain or fragment, human, UniProt Q9BVA6 104-445, looked up)
chain: B2 chain with K153S, A260H
notes: FICD (HYPE), human, residues 104-445; also called Lys256Ser; dimer relay mutant; source: E. coli T7 Express lysY/Iq, purified (Ni-NTA, on-column Ulp1 cleavage, anion exchange, SEC)
B6: non-oxidised FICD^A252C-C421S (residues 104-445) (domain or fragment, human, UniProt Q9BVA6 104-445, looked up)
chain: B2 chain with A149C, A260H, C318S
notes: FICD (HYPE), human, residues 104-445; also called non-disulphide-bonded FICD^A252C-C421S; UK 2219; source: E. coli T7 Express lysY/Iq, purified; a separate preparation not subjected to oxidation with glutathione
B7: wild-type FICD (amino acid residues 104-445) (domain or fragment, human, UniProt Q9BVA6 104-445, looked up)
chain: B2 chain with A260H
notes: FICD (HYPE), human, residues 104-445; Homodimer in solution; its rows measure this dimerisation, so copies is left empty; also called HYPE; dFICD; source: E. coli T7 Express lysY/Iq, purified (Ni-NTA, on-column Ulp1 cleavage, anion exchange, SEC)
B8: FICD^G299S (residues 104-445) (domain or fragment, human, UniProt Q9BVA6 104-445, looked up)
chain: B2 chain with G196S, A260H
notes: FICD (HYPE), human, residues 104-445; also called Gly299Ser; source: E. coli T7 Express lysY/Iq, purified (Ni-NTA, on-column Ulp1 cleavage, anion exchange, SEC)
B9: FICD^K256A (residues 104-445) (domain or fragment, human, UniProt Q9BVA6 104-445, looked up)
chain: B2 chain with K153A, A260H
notes: FICD (HYPE), human, residues 104-445; also called dimeric dimer relay mutant FICD^K256A; source: E. coli T7 Express lysY/Iq, purified; gel-filtered into 10 mM Tris-HCl pH 8.0, 150 mM NaCl, 1 mM TCEP for crystallisation
B10: catalytically inactive, monomeric FICD^L258D-H363A (residues 104-445) (domain or fragment, human, UniProt Q9BVA6 104-445, looked up)
chain: B2 chain with L155D
notes: FICD (HYPE), human, residues 104-445; also called mFICD^H363A; source: E. coli T7 Express lysY/Iq, purified (Ni-NTA, on-column Ulp1 cleavage, anion exchange, SEC)
B11: FICD^S288C-H363A-C421S-TMR (dimerisation-sensitive fluorescent probe) (domain or fragment, human, UniProt Q9BVA6 104-445, looked up)
chain: B2 chain with S185C, C318S
modifications: tetramethylrhodamine (TMR-5-maleimide) on Cys288 (labelling efficiency 41%); unlabelled cysteines quenched with NEM
notes: FICD (HYPE), human, residues 104-445; also called FICD-TMR; UK 2473

What was measured:
[1] = target: the molecule itself; assay: AUC; fluorescence-detected sedimentation velocity; Oregon Green-labelled FICD from 1.6 μM to 31 pM; 50 mM HEPES-KOH pH 7.4, 150 mM KCl, 10 mM MgCl2, 1 mM CaCl2, 0.3 mM TCEP, 0.1% Tween-20, 0.15 mg/ml BSA; 45,000 rpm, 20°C; monomer-dimer isotherm of signal-averaged s; dimer to monomers
[2] = target: T1, biotinylated-AviTag-haBiP^T229A-V461F (Chinese hamster, UniProt G3I8R9 19-654, T229A | V461F, biotin on the AviTag); assay: BLI; biotinylated BiP^T229A-V461F immobilised on streptavidin biosensors and saturated with 2 mM ATP; FICD His363Ala variants at 250 nM, association or dissociation without nucleotide or with ATP 8 mM or ADP 2 mM; HKM plus 0.05% Triton X-100, 30°C; details: both partners purified
T1 construct: BiP, Chinese hamster; Immobilised nucleotide-free and, where indicated, saturated with 2 mM ATP on the sensor; also called BiP^T229A-V461F:Apo; BiP:ATP
T1 sequence (G3I8R9 19-654 T229A/V461F): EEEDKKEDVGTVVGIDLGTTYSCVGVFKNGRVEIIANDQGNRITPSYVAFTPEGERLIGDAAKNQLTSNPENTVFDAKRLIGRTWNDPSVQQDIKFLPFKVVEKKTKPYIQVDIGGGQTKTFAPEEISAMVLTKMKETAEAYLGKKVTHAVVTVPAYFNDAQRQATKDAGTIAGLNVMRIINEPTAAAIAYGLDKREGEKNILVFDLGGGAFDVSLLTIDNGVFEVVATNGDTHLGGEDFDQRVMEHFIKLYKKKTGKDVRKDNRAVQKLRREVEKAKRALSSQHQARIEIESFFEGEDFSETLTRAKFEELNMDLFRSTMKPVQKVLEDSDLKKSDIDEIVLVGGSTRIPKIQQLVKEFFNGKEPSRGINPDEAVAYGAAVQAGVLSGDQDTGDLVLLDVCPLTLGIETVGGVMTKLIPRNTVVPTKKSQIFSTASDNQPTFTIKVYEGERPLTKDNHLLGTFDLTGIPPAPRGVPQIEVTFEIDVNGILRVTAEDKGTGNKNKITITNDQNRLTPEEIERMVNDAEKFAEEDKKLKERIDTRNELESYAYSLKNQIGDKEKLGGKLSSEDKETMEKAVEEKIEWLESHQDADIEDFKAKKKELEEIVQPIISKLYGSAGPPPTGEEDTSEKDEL

[3] = target: B11; assay: other fluorescence titration; 2.5 nM FICD^S288C-H363A-C421S-TMR with unlabelled FICD or nucleotide as titrant in HKTx, 45 min at 10°C; de-quenching of TMR fluorescence (excitation 535 nm, emission 585 nm); details: both partners purified
[4] = target: T2, biotinylated-AviTag-FICD^H363A (human, UniProt Q9BVA6 104-445, H363A, biotin on the AviTag); assay: BLI; 3 nM biotinylated-AviTag-FICD^H363A incubated 10 min at 25°C with 300 nM FICD^H363A, hetero-labelled dimers loaded on streptavidin biosensors; dissociation into HKTx with or without 5 mM nucleotide; signal of sensors incubated with FICD^L258D-H363A subtracted; dimer to monomers; details: both partners purified
T2 construct: FICD (HYPE), human, residues 104-445 (the limits are those told for all purified FICD proteins); also called N-terminally biotinylated FICD^H363A; UK 2422; not shown: AviTag, N-terminal, kept
T2 sequence (looked up): B2 chain

[5] = target: the molecule itself; assay: SEC; analytical SEC-3 HPLC column in HKMC (50 mM HEPES-KOH pH 7.4, 150 mM KCl, 10 mM MgCl2, 1 mM CaCl2), 25°C; proteins at 20 μM, or at 0.2-50 μM after 16 h at 25°C; approximate Kd from elution peak time against concentration; dimer to monomers
[6] = target: the molecule itself; assay: crystal structure; sitting drop vapour diffusion, protein at 9 mg/ml in 10 mM Tris-HCl pH 8.0, 150 mM NaCl, 1 mM TCEP, with 10 mM MgATP or MgAMPPNP where applicable
[7] = target: the molecule itself; assay: other fluorescence titration; 2.5 nM FICD^S288C-H363A-C421S-TMR with unlabelled FICD or nucleotide as titrant in HKTx, 45 min at 10°C; de-quenching of TMR fluorescence (excitation 535 nm, emission 585 nm)

In the case of B1, the Kd [1] is reported as 1.2 nM.

B2 was tested, and the binding result [2] was “binds”, the binding result [3] was “binds” and the “fold increase of the dimer dissociation rate with 5 mM ATP against no nucleotide” value [4] was 3 fold.

B3: binds [5].

In the case of B4, the Kd [5] is reported as < 400 nM.

With B5 the Kd [5] was < 400 nM and the “stoichiometry N” value [6] was 2 molecules in the biological unit.

B6: binds [5].

B7 was tested, and the “stoichiometry N” value [5] was 2 and the “stoichiometry N” value [6] was 2 molecules in the biological unit.

With B8 the Kd [5] was 9500 nM.

In the case of B9, the “stoichiometry N” value [6] is reported as 2 molecules in the biological unit.

B10: binds [2].

B11: binds [7].

Reference: paper PMC6826200, “An oligomeric state‐dependent switch in the ER enzyme FICD regulates AMPylation and deAMPylation of BiP” (The EMBO Journal, 2019)
